Source: patent US20140087995A1 (published 2014)
Numbered stars: 1 amine (or outer) side, 2 acyl side, 3 side chain; on linkers, the order of the positions; unused ones are H or OH. Bridge positions count the residues as written; N and C are the ends. Side chains are listed from the residue outwards. Ends that are not written are not given here. * marks the point of attachment. C20 diacid = O=C(O)CCCCCCCCCCCCCCCCCCC(=O)*; C18 diacid = O=C(O)CCCCCCCCCCCCCCCCC(=O)*; C16 diacid = O=C(O)CCCCCCCCCCCCCCC(=O)*; γGlu = O=C(O)[C@H](CCC(=O)[*:2])N[*:1]; C14 diacid = O=C(O)CCCCCCCCCCCCC(=O)*; AEEA = NCCOCCOCC(=O)O

T1: human calcitonin receptor (human, UniProt P30988 25-474)
T1 sequence (looked up): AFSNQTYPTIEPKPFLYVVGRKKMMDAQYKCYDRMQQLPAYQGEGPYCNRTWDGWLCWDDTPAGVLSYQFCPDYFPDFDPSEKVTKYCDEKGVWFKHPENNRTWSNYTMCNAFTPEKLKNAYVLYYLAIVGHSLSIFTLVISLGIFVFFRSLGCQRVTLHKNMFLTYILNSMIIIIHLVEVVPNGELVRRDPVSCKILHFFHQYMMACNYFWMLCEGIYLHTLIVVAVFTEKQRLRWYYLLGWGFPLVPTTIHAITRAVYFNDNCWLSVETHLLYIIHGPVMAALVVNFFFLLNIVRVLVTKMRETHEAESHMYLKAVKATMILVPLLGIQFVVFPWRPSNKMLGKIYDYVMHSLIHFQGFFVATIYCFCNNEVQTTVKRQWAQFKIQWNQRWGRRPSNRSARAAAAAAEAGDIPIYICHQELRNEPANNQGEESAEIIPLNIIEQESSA

T2: human calcitonin receptor (human, UniProt P30988 25-474)
T2 sequence (looked up): T1 sequence (looked up)

B1: N^ε1-[2-[2-[2-(19-carboxynonadecanoylamino)ethoxy]ethoxy]acetyl]-[Arg17,Pro21,Pro27,His34]-h-amylin (peptide)
peptide: K([AEEA-C20 diacid])CNTATCATQRLANFLRHSSPNFGAIPSSTNVGHNTY-NH2
modifications: disulfide 2-7; N-terminus assumed
SMILES: CC[C@H](C)[C@H](NC(=O)[C@H](C)NC(=O)CNC(=O)[C@H](Cc1ccccc1)NC(=O)[C@H](CC(N)=O)NC(=O)[C@@H]1CCCN1C(=O)[C@H](CO)NC(=O)[C@H](CO)NC(=O)[C@H](Cc1c[nH]cn1)NC(=O)[C@H](CCCNC(=N)N)NC(=O)[C@H](CC(C)C)NC(=O)[C@H](Cc1ccccc1)NC(=O)[C@H](CC(N)=O)NC(=O)[C@H](C)NC(=O)[C@H](CC(C)C)NC(=O)[C@H](CCCNC(=N)N)NC(=O)[C@H](CCC(N)=O)NC(=O)[C@@H](NC(=O)[C@H](C)NC(=O)[C@@H]1CSSC[C@H](NC(=O)[C@@H](N)CCCCNC(=O)COCCOCCNC(=O)CCCCCCCCCCCCCCCCCCC(=O)O)C(=O)N[C@@H](CC(N)=O)C(=O)N[C@@H]([C@@H](C)O)C(=O)N[C@@H](C)C(=O)N[C@@H]([C@@H](C)O)C(=O)N1)[C@@H](C)O)C(=O)N1CCC[C@H]1C(=O)N[C@@H](CO)C(=O)N[C@@H](CO)C(=O)N[C@H](C(=O)N[C@@H](CC(N)=O)C(=O)N[C@H](C(=O)NCC(=O)N[C@@H](Cc1c[nH]cn1)C(=O)N[C@@H](CC(N)=O)C(=O)N[C@H](C(=O)N[C@@H](Cc1ccc(O)cc1)C(N)=O)[C@@H](C)O)C(C)C)[C@@H](C)O
notes: also called compound 91
B2: N^ε1-[2-[2-[2-[[2-[2-[2-[[(4S)-4-carboxy-4-(19-carboxynonadecanoylamino)butanoyl]amino]ethoxy]ethoxy]acetyl]amino]ethoxy]ethoxy]acetyl]-[Arg17,Pro21,Pro27,His34 … (peptide)
peptide: K([AEEA-AEEA-γGlu-C20 diacid])CNTATCATQRLANFLRHSSPNFGAIPSSTNVGHNTY-NH2
modifications: disulfide 2-7; N-terminus assumed
SMILES: CC[C@H](C)[C@H](NC(=O)[C@H](C)NC(=O)CNC(=O)[C@H](Cc1ccccc1)NC(=O)[C@H](CC(N)=O)NC(=O)[C@@H]1CCCN1C(=O)[C@H](CO)NC(=O)[C@H](CO)NC(=O)[C@H](Cc1c[nH]cn1)NC(=O)[C@H](CCCNC(=N)N)NC(=O)[C@H](CC(C)C)NC(=O)[C@H](Cc1ccccc1)NC(=O)[C@H](CC(N)=O)NC(=O)[C@H](C)NC(=O)[C@H](CC(C)C)NC(=O)[C@H](CCCNC(=N)N)NC(=O)[C@H](CCC(N)=O)NC(=O)[C@@H](NC(=O)[C@H](C)NC(=O)[C@@H]1CSSC[C@H](NC(=O)[C@@H](N)CCCCNC(=O)COCCOCCNC(=O)COCCOCCNC(=O)CC[C@H](NC(=O)CCCCCCCCCCCCCCCCCCC(=O)O)C(=O)O)C(=O)N[C@@H](CC(N)=O)C(=O)N[C@@H]([C@@H](C)O)C(=O)N[C@@H](C)C(=O)N[C@@H]([C@@H](C)O)C(=O)N1)[C@@H](C)O)C(=O)N1CCC[C@H]1C(=O)N[C@@H](CO)C(=O)N[C@@H](CO)C(=O)N[C@H](C(=O)N[C@@H](CC(N)=O)C(=O)N[C@H](C(=O)NCC(=O)N[C@@H](Cc1c[nH]cn1)C(=O)N[C@@H](CC(N)=O)C(=O)N[C@H](C(=O)N[C@@H](Cc1ccc(O)cc1)C(N)=O)[C@@H](C)O)C(C)C)[C@@H](C)O
notes: also called compound 97
B3: N^ε1-[(4S)-4-carboxy-4-(13-carboxytridecanoylamino)butanoyl]-[Arg17,Pro21,Pro27,His34]-h-amylin (peptide)
peptide: K([γGlu-C14 diacid])CNTATCATQRLANFLRHSSPNFGAIPSSTNVGHNTY-NH2
modifications: disulfide 2-7; N-terminus assumed
SMILES: CC[C@H](C)[C@H](NC(=O)[C@H](C)NC(=O)CNC(=O)[C@H](Cc1ccccc1)NC(=O)[C@H](CC(N)=O)NC(=O)[C@@H]1CCCN1C(=O)[C@H](CO)NC(=O)[C@H](CO)NC(=O)[C@H](Cc1c[nH]cn1)NC(=O)[C@H](CCCNC(=N)N)NC(=O)[C@H](CC(C)C)NC(=O)[C@H](Cc1ccccc1)NC(=O)[C@H](CC(N)=O)NC(=O)[C@H](C)NC(=O)[C@H](CC(C)C)NC(=O)[C@H](CCCNC(=N)N)NC(=O)[C@H](CCC(N)=O)NC(=O)[C@@H](NC(=O)[C@H](C)NC(=O)[C@@H]1CSSC[C@H](NC(=O)[C@@H](N)CCCCNC(=O)CC[C@H](NC(=O)CCCCCCCCCCCCC(=O)O)C(=O)O)C(=O)N[C@@H](CC(N)=O)C(=O)N[C@@H]([C@@H](C)O)C(=O)N[C@@H](C)C(=O)N[C@@H]([C@@H](C)O)C(=O)N1)[C@@H](C)O)C(=O)N1CCC[C@H]1C(=O)N[C@@H](CO)C(=O)N[C@@H](CO)C(=O)N[C@H](C(=O)N[C@@H](CC(N)=O)C(=O)N[C@H](C(=O)NCC(=O)N[C@@H](Cc1c[nH]cn1)C(=O)N[C@@H](CC(N)=O)C(=O)N[C@H](C(=O)N[C@@H](Cc1ccc(O)cc1)C(N)=O)[C@@H](C)O)C(C)C)[C@@H](C)O
B4: N^ε1-[(4S)-4-carboxy-4-(15-carboxypentadecanoylamino)butanoyl]-[Arg17,Pro21,Pro27,His34]-h-amylin (peptide)
peptide: K([γGlu-C16 diacid])CNTATCATQRLANFLRHSSPNFGAIPSSTNVGHNTY-NH2
modifications: disulfide 2-7; N-terminus assumed
SMILES: CC[C@H](C)[C@H](NC(=O)[C@H](C)NC(=O)CNC(=O)[C@H](Cc1ccccc1)NC(=O)[C@H](CC(N)=O)NC(=O)[C@@H]1CCCN1C(=O)[C@H](CO)NC(=O)[C@H](CO)NC(=O)[C@H](Cc1c[nH]cn1)NC(=O)[C@H](CCCNC(=N)N)NC(=O)[C@H](CC(C)C)NC(=O)[C@H](Cc1ccccc1)NC(=O)[C@H](CC(N)=O)NC(=O)[C@H](C)NC(=O)[C@H](CC(C)C)NC(=O)[C@H](CCCNC(=N)N)NC(=O)[C@H](CCC(N)=O)NC(=O)[C@@H](NC(=O)[C@H](C)NC(=O)[C@@H]1CSSC[C@H](NC(=O)[C@@H](N)CCCCNC(=O)CC[C@H](NC(=O)CCCCCCCCCCCCCCC(=O)O)C(=O)O)C(=O)N[C@@H](CC(N)=O)C(=O)N[C@@H]([C@@H](C)O)C(=O)N[C@@H](C)C(=O)N[C@@H]([C@@H](C)O)C(=O)N1)[C@@H](C)O)C(=O)N1CCC[C@H]1C(=O)N[C@@H](CO)C(=O)N[C@@H](CO)C(=O)N[C@H](C(=O)N[C@@H](CC(N)=O)C(=O)N[C@H](C(=O)NCC(=O)N[C@@H](Cc1c[nH]cn1)C(=O)N[C@@H](CC(N)=O)C(=O)N[C@H](C(=O)N[C@@H](Cc1ccc(O)cc1)C(N)=O)[C@@H](C)O)C(C)C)[C@@H](C)O
B5: N^ε1-[(4S)-4-carboxy-4-(17-carboxyheptadecanoylamino)butanoyl]-[Arg17,Pro21,Pro27,His34]-h-amylin (peptide)
peptide: K([γGlu-C18 diacid])CNTATCATQRLANFLRHSSPNFGAIPSSTNVGHNTY-NH2
modifications: disulfide 2-7; N-terminus assumed
SMILES: CC[C@H](C)[C@H](NC(=O)[C@H](C)NC(=O)CNC(=O)[C@H](Cc1ccccc1)NC(=O)[C@H](CC(N)=O)NC(=O)[C@@H]1CCCN1C(=O)[C@H](CO)NC(=O)[C@H](CO)NC(=O)[C@H](Cc1c[nH]cn1)NC(=O)[C@H](CCCNC(=N)N)NC(=O)[C@H](CC(C)C)NC(=O)[C@H](Cc1ccccc1)NC(=O)[C@H](CC(N)=O)NC(=O)[C@H](C)NC(=O)[C@H](CC(C)C)NC(=O)[C@H](CCCNC(=N)N)NC(=O)[C@H](CCC(N)=O)NC(=O)[C@@H](NC(=O)[C@H](C)NC(=O)[C@@H]1CSSC[C@H](NC(=O)[C@@H](N)CCCCNC(=O)CC[C@H](NC(=O)CCCCCCCCCCCCCCCCC(=O)O)C(=O)O)C(=O)N[C@@H](CC(N)=O)C(=O)N[C@@H]([C@@H](C)O)C(=O)N[C@@H](C)C(=O)N[C@@H]([C@@H](C)O)C(=O)N1)[C@@H](C)O)C(=O)N1CCC[C@H]1C(=O)N[C@@H](CO)C(=O)N[C@@H](CO)C(=O)N[C@H](C(=O)N[C@@H](CC(N)=O)C(=O)N[C@H](C(=O)NCC(=O)N[C@@H](Cc1c[nH]cn1)C(=O)N[C@@H](CC(N)=O)C(=O)N[C@H](C(=O)N[C@@H](Cc1ccc(O)cc1)C(N)=O)[C@@H](C)O)C(C)C)[C@@H](C)O
B6: N^ε1-[(4S)-4-carboxy-4-(19-carboxynonadecanoylamino)butanoyl]-[Ala14,Arg17,Pro21,Pro27,His34]-h-amylin (peptide)
peptide: K([γGlu-C20 diacid])CNTATCATQRLAAFLRHSSPNFGAIPSSTNVGHNTY-NH2
modifications: disulfide 2-7; N-terminus assumed
SMILES: CC[C@H](C)[C@H](NC(=O)[C@H](C)NC(=O)CNC(=O)[C@H](Cc1ccccc1)NC(=O)[C@H](CC(N)=O)NC(=O)[C@@H]1CCCN1C(=O)[C@H](CO)NC(=O)[C@H](CO)NC(=O)[C@H](Cc1c[nH]cn1)NC(=O)[C@H](CCCNC(=N)N)NC(=O)[C@H](CC(C)C)NC(=O)[C@H](Cc1ccccc1)NC(=O)[C@H](C)NC(=O)[C@H](C)NC(=O)[C@H](CC(C)C)NC(=O)[C@H](CCCNC(=N)N)NC(=O)[C@H](CCC(N)=O)NC(=O)[C@@H](NC(=O)[C@H](C)NC(=O)[C@@H]1CSSC[C@H](NC(=O)[C@@H](N)CCCCNC(=O)CC[C@H](NC(=O)CCCCCCCCCCCCCCCCCCC(=O)O)C(=O)O)C(=O)N[C@@H](CC(N)=O)C(=O)N[C@@H]([C@@H](C)O)C(=O)N[C@@H](C)C(=O)N[C@@H]([C@@H](C)O)C(=O)N1)[C@@H](C)O)C(=O)N1CCC[C@H]1C(=O)N[C@@H](CO)C(=O)N[C@@H](CO)C(=O)N[C@H](C(=O)N[C@@H](CC(N)=O)C(=O)N[C@H](C(=O)NCC(=O)N[C@@H](Cc1c[nH]cn1)C(=O)N[C@@H](CC(N)=O)C(=O)N[C@H](C(=O)N[C@@H](Cc1ccc(O)cc1)C(N)=O)[C@@H](C)O)C(C)C)[C@@H](C)O
notes: also called compound 93
B7: N^ε1-[(4S)-4-carboxy-4-[[(4S)-4-carboxy-4-(19-carboxynonadecanoylamino)butanoyl]amino]butanoyl]-[Glu14,Arg17,Pro21,Pro27,Pro34,Phe37]-h-amylin (peptide)
peptide: K([γGlu-γGlu-C20 diacid])CNTATCATQRLAEFLRHSSPNFGAIPSSTNVGPNTF-NH2
modifications: disulfide 2-7 (inferred)
notes: Synthetic
B8: N^ε1-[(4S)-4-carboxy-4-[[(4S)-4-carboxy-4-(19-carboxynonadecanoylamino)butanoyl]amino]butanoyl]-[Ser14,Arg17,Pro21,Pro27,Pro34,Glu35]-h-amylin (peptide)
peptide: K([γGlu-γGlu-C20 diacid])CNTATCATQRLASFLRHSSPNFGAIPSSTNVGPETY-NH2
modifications: disulfide 2-7 (inferred)
notes: Synthetic; also called compound 120
B9: N^ε1-[(4S)-4-carboxy-4-(19-carboxynonadecanoylamino)butanoyl]-[Glu14,Arg17,Pro21,Pro27,Pro34,Glu35]-h-amylin (peptide)
peptide: K([γGlu-C20 diacid])CNTATCATQRLAEFLRHSSPNFGAIPSSTNVGPETY-NH2
modifications: disulfide 2-7 (inferred)
notes: Synthetic

molecular target: T1, human calcitonin receptor; assay: cell-based or functional assay

Row | Binder | hCTR funct. EC50 (pM)
1 | B1 | 1480
2 | B2 | 11800
3 | B3 | 1090
4 | B4 | 2210
5 | B5 | 5850
6 | B6 | 1140

molecular target: T2, human calcitonin receptor; assay: cell-based or functional assay

Row | Binder | hCTR funct. EC50 (pM)
7 | B7 | 2140
8 | B8 | 887
9 | B9 | 841
